Data published in paper PMC11728703.
“And” between values parts separate entries of the source, which are not always exact repeats. Identical values can stand only once.

Biological target: Bacteriophage P22 small terminase subunit gp3 (S-terminase), full length (bacteriophage P22)
Assay: native MS; co-purified S:L-terminase complex (peak 2) exchanged into 150 mM ammonium acetate pH 8.0, 2 uM, nanoflow electrospray capillary; modified QTOF-2 and Exactive Plus EMR Orbitrap

Sequence of Bacteriophage P22 small terminase subunit gp3 (S-terminase), full length (bacteriophage P22) (P04893 whole entry): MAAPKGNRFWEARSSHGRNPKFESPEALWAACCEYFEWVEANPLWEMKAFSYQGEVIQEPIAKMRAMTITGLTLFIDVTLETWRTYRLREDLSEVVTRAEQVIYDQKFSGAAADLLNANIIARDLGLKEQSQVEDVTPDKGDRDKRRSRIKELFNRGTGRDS

Substance | stoichiometry N | stoichiometry N (gp2 per 1 (gp3)9) | stoichiometry N (gp2 per 2 (gp3)9) | stoichiometry N (gp2 per 3 (gp3)9)
Bacteriophage P22 small terminase subunit gp3 (S-terminase), full length (natural protein) | 9 |  |  | 
Bacteriophage P22 large terminase subunit gp2 (L-terminase), full length (enzyme) |  | 1 and 2 | 5 | 7
